This is an account of results in patent US20110230370A1 (CALIFORNIA INSTITUTE OF TECHNOLOGY, published 2011).

Assay [1] addresses ^MNMATα2f (wild-type full-length MATα2, C-terminally flag-tagged) (S. cerevisiae) (UniProt P0CY08). Kind of assay: cell-based or functional assay.
The target of assay [2] is T1, Doa10myc13 (full-length, C-terminally myc13-tagged S. cerevisiae Doa10 E3 Ub ligase) (S. cerevisiae, UniProt P40318 1-1319).
T1 construct: mature; also called mycn-tagged Doa10; Doa10men
T1 sequence (looked up): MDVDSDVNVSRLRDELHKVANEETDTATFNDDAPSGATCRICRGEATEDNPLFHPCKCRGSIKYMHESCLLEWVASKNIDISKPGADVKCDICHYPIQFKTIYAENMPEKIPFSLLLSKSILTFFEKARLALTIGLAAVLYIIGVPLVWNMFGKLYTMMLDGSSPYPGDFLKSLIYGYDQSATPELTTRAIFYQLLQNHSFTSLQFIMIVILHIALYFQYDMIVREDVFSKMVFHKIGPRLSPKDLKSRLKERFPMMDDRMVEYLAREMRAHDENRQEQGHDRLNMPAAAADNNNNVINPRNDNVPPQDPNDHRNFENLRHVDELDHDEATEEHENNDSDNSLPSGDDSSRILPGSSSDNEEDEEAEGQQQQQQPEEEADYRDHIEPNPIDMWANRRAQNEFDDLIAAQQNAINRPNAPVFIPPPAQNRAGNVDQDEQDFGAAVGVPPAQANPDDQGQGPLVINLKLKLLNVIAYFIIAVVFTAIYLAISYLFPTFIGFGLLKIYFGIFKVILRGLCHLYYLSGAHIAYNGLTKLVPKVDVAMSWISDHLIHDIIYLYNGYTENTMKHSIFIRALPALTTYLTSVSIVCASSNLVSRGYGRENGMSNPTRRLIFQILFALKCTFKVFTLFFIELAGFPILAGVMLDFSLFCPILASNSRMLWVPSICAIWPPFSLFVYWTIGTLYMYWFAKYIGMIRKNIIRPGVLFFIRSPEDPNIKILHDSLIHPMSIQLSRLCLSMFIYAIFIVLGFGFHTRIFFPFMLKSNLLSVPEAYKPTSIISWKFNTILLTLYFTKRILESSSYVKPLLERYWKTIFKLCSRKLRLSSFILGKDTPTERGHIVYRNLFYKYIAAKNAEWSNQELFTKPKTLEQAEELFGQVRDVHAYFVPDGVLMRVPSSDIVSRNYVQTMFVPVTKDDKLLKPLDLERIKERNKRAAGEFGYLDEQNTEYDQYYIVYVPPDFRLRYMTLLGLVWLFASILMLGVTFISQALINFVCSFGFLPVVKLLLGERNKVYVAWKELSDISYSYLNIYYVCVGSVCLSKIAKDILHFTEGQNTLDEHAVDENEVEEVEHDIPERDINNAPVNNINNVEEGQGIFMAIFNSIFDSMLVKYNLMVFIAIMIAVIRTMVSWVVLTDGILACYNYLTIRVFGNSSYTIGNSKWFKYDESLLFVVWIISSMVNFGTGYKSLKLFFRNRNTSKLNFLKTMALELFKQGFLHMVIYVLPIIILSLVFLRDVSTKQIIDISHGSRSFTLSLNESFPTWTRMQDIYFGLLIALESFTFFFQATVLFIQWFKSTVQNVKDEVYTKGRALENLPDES
Nature of the assay: X-peptide pulldown from yeast extract, anti-myc immunoblot. (In western blotting, separated proteins are transferred to a membrane and probed.)

“Doa10 E3 Ub ligase (endogenous, S. cerevisiae) (from UniProt P40318 1-1319)” registered a level of MATα2f at 0 min (end of pulse) in wild-type cells relative to doa10Δ cells (100%), Ub-reference ^35S-pulse-chase in assay [1] of 55%.

In assay [1], “Doa10 E3 Ub ligase (endogenous, S. cerevisiae) (from UniProt P40318 1-1319) (enzyme)” returned an in vivo half-life of ^MNMATα2f, ^35S-pulse-chase, doa10Δ ubc4Δ cells (Doa10 absent) of 35 min and an in vivo half-life of ^MNMATα2f, ^35S-pulse-chase, ubc4Δ cells (Doa10 present) of 9 min.

B1: synthetic peptide XIFSTDTGPGGC with X=Phe (peptide)
peptide: FIFSTDTGPGGC
notes: also called nsP4-derived control peptide (X=Phe)
For B1, the binding result in assay [2] is listed as “no binding”.

B2: synthetic peptide XIFSTDTGPGGC with X=Arg (peptide)
peptide: RIFSTDTGPGGC
notes: also called nsP4-derived control peptide (X=Arg)
With B2, the binding result in assay [2] is “no binding”.

B3: synthetic peptide XIFSTDTGPGGC with X=Met (peptide)
peptide: MIFSTDTGPGGC
notes: also called nsP4-derived control peptide (X=Met)
Consider B3, for which the binding result in assay [2] was “no binding”.
